Source: patent US20040259798A1
Bridge positions count the residues as written; N and C are the ends. Ends that are not written are not given here.

Columns and labels:
[1] = target: β2 integrins on THP-1 cells; assay: inhibition of THP-1 cell adhesion to coated LLG-C4-GST
[2] = target: β2 integrins on THP-1 cells; assay: inhibition of THP-1 cell adhesion to coated LLG-C4-GST, phosphatase assay
[3] = target: β2 integrins on THP-1 cells; assay: inhibition of THP-1 cell adhesion to coated von Willebrand factor, phosphatase assay
[4] = target: β2 integrins on THP-1 cells; assay: inhibition (partial) of THP-1 cell adhesion to coated type IV collagen, phosphatase assay

Row | Binder | fold less active than C(1-8;3-9) [1] [fold] | IC50 [2] [µM] | IC50 [3] [µM] | IC50 [4] [µM]
1 | CPCFLLGCC (disulfide 1-9, 3-8) [C(1-9;3-8) peptide] | 20 |  |  | 
2 | CPCFLLGCC (disulfide 1-8, 3-9) [C(1-8;3-9) peptide] |  | 20 | 20 | 200
